The numbers were not newly measured in PMC2806950, which cites them from elsewhere.

In the data set the target is EcoKI R/M enzyme (Escherichia coli) (UniProt P08956). In words: given as Ka.
Sequence of EcoKI R/M enzyme (Escherichia coli) (P08956 whole entry, chain 1 of 3): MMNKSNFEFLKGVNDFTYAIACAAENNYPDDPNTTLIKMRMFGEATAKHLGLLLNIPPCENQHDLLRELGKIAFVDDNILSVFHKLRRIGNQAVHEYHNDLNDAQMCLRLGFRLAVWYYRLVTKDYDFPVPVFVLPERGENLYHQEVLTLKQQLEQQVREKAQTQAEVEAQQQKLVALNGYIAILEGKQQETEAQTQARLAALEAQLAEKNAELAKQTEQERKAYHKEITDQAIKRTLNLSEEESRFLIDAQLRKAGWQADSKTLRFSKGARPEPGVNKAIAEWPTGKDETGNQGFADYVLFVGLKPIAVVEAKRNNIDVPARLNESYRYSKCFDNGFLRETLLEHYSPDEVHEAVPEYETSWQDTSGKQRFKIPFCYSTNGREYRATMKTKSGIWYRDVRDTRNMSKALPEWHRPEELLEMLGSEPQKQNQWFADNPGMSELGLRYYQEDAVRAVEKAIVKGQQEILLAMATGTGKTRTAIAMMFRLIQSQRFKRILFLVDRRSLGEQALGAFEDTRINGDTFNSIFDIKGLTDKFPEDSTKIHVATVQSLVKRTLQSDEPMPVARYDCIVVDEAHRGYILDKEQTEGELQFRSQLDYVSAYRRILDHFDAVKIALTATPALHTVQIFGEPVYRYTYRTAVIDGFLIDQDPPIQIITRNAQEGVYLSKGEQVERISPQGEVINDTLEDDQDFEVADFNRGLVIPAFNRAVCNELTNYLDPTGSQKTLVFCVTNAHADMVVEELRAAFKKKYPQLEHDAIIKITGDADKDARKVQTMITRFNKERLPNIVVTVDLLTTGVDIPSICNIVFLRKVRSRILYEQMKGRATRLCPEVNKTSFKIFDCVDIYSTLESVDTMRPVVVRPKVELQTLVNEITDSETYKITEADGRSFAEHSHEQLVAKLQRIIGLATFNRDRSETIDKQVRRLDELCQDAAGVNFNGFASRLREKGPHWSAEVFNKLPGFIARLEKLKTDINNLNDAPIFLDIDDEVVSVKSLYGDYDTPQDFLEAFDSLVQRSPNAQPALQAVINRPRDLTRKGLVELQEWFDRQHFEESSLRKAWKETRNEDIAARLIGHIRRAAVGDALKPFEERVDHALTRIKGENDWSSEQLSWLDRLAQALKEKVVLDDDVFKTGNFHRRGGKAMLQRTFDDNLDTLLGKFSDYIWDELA
Sequence of EcoKI R/M enzyme (Escherichia coli) (P08957 whole entry, chain 2 of 3, further chain): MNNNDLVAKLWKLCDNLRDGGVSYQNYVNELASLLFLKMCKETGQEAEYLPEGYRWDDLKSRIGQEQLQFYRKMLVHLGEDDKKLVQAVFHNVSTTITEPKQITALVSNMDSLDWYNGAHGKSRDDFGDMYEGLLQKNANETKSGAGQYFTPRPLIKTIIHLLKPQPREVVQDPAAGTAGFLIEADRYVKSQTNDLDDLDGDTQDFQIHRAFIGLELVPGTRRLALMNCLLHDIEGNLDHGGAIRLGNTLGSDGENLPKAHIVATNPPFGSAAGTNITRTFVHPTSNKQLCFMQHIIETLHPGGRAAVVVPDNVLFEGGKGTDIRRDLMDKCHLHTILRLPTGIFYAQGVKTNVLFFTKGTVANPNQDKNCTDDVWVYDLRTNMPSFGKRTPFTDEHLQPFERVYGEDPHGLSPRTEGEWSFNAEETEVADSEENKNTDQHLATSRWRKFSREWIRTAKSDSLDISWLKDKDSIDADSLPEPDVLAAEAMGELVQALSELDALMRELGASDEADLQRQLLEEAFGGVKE
Sequence of EcoKI R/M enzyme (Escherichia coli) (P05719 2-464, chain 3 of 3, further chain): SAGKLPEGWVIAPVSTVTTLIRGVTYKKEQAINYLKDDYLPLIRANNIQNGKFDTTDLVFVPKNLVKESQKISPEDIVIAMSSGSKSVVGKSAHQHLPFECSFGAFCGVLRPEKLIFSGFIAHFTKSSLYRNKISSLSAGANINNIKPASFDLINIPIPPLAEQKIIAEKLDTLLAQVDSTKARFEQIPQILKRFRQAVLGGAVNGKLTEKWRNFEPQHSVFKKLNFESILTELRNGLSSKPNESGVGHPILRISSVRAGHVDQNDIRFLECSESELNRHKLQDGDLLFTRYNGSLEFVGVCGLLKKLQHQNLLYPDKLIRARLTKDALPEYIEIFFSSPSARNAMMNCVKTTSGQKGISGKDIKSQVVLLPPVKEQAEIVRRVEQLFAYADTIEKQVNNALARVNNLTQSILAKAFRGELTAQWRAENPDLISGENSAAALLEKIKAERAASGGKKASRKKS

Sequence of Ocr (P03775 whole entry): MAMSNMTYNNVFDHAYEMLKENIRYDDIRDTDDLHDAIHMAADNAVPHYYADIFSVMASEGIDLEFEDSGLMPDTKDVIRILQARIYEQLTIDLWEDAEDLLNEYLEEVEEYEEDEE

As to Ocr (from UniProt P03775), the Kd was 0.05 nM.
